Results published in patent US20160194391A1 (AstraZeneca / MedImmune, published 2016).
Residue numbers refer to the chain shown, from its start. Values belong to the binder of their own block, whether it stands above or below them.

Legend:
[1] = target: T1, human dimeric IL-23 (eBiosciences 34-8239) (human, UniProt P29460 23-328; Q9NPF7 20-189); assay: cell-based or functional assay
T1 sequence (looked up) 1: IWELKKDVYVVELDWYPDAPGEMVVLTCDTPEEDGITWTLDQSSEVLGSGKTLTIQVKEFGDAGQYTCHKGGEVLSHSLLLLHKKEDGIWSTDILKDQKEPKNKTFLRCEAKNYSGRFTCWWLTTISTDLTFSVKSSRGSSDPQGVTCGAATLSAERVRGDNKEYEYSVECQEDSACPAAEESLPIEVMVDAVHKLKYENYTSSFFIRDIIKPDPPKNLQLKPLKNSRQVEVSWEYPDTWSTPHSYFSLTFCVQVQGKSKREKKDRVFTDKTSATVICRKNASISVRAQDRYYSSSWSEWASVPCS
T1 sequence (looked up) 2: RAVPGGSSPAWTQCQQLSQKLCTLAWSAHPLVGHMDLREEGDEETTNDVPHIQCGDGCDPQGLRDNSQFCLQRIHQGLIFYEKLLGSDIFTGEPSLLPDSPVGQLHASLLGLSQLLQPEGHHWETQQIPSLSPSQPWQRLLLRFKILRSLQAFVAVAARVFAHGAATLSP

[2] = target: T2, IL-23 p40-p19-His (human); assay: ELISA on IL-23 p40-p19-His (coated directly or through anti-His)
T2 construct: Single-chain fusion coated on the IL-23 ELISA plates; also called p40:p19-6×HIS
T2 chain: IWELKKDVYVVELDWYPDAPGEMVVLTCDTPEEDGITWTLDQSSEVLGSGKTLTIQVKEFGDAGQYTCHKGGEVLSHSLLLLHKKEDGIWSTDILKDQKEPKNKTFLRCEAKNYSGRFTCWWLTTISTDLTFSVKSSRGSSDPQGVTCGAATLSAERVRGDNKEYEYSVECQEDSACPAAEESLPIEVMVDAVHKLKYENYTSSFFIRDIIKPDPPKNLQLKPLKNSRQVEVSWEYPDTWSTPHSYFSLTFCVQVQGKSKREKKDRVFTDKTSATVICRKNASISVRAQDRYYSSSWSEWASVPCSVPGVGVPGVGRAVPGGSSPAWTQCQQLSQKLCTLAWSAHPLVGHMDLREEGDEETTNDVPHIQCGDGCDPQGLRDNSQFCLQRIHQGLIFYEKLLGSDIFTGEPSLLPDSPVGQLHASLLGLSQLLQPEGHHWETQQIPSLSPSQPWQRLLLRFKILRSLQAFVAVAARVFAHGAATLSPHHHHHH
Description: For the indirect binding method anti-His antibody (Cat # A00613, GenScript Corp., New Jersey, USA) was added to the plates in 100 μl/well of PBS at 0.01-0.02 ug/ml. Plates were incubated 1 hour at 37C, or overnight at 4C. To block non-specific binding 100 μl/well PBS containing 10% goat serum (Cat #16210-072, Invitrogen, USA) was added to each well, after which plates were rinsed 5 times with de-ionized water. IL-23 p40-p19-His (SEQ ID 4) in 100 μl/well PBS/10% goat serum at 0.5 μg/ml was added and incubated for 1 hour at room temperature.
For the direct binding method IL-23 p40-p19-His (SEQ ID 4) was added to an ELISA plate in 100 μl PBS at 0.5 μg/ml. Plates were incubated 1 hour at 37C, or overnight at 4C. To block non-specific binding 100 μl/well PBS containing 10% goat serum (Cat #16210-072, Invitrogen, USA) was added to each well. Plates were incubated 1 hour at room temperature.
After IL-23 binding, plates were rinsed 5 times with de-ionized water. To each well was added 50 μl PBS/10% goat serum. Test samples were then added at 50 μl/well. Plates were incubated 1 hour at room temperature and were rinsed 5 times with de-ionized water. To each well was added 100 μl peroxidase-conjugated goat anti-rabbit IgG (Cat. #111-035-008, Jackson Immuno Research) diluted 1:5000 in PBS/10% goat serum. Plates were incubated 1 hour at room temperature, then washed 5 times with de-ionized water. TMB substrate (Thermo Scientific, Rockford, Ill., USA) was added at 100 μl/well. The reaction was stopped with 100 μl N H₂SO₄ (JT Baker, Phillipsburg, N.J., USA). Absorbance was measured at 450 nm using a Molecular Devices M2 plate reader.

[3] = target: T1, human dimeric IL-23 (eBiosciences …); assay: cell-based or functional assay; remark: listed apart in the source
[4] = target: T3, human IL-12 (human, UniProt P29459 23-219; P29460 23-328); assay: ELISA, human IL-12 coated on the plate; antibody concentration not given [Binding to Human IL-12]
T3 construct: Bioassay used Prospec-Tany Cyt-362
T3 sequence (looked up) 1: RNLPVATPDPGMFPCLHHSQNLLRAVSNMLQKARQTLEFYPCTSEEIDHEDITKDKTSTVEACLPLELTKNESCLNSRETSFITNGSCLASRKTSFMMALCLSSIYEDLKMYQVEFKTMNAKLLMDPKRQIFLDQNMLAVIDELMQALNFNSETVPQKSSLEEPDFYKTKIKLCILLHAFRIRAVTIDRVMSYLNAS
T3 sequence (looked up) 2: T1 sequence (looked up) 1

[5] = target: T2, IL-23 p40-p19-His; assay: ELISA on IL-23 p40-p19-His
[6] = target: T3, human IL-12; assay: cell-based or functional assay
[7] = target: T4, human IL-6 (human, UniProt P05231 30-212); assay: cell-based or functional assay
[8] = target: T5, Primate IL-6 (Macaca mulatta, UniProt P51494); assay: cell-based or functional assay
T5 sequence (cytokine, looked up): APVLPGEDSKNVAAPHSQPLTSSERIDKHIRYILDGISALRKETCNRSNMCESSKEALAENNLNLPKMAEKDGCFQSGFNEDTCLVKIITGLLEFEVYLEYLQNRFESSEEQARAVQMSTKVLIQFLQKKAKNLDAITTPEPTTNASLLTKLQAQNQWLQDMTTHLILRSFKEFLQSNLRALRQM

[9] = target: T4, human IL-6; assay: SPR (SensiQ Pioneer), mAb captured on protein G, IL-6 as analyte (3×FLAG-IL-6 or IL-6 CYT-213, 1-100 nM), 25 C, 1:1 model
Description: Equilibrium constants for rabbit human chimeric mAbs were determined by binding the mAb to the protein G coated chip followed by binding of each analyte (IL-6 or IL-23) to its respective mAb. In order to minimize mass transfer effects, the surface densities of the mAbs for each analyte were adjusted so that as analyte binding approached saturation its corresponding RU fell between 200 and 300. […] For each binding and dissociation cycle the chip surface was regenerated with 15 uL of 20 mM NaOH (5671-02, Mallinckrodt Baker, Philliphsburg, N.J.). The assay temperature was maintained at 25° C. with an analyte flow rate of 50 μL/min and included a 2 minute association phase and 10-30 minute dissociation phase. The on/off rates (kₐ/kd) and dissociation constants (KD) were determined using the format described above along with pseudo-first-order 1:1 interaction model software (Qdat, ICx Nomadics, Stillwater, Okla.).

B1: 16C6 chimeric mAb (antibody, V domains shown)
VH: QSVEESGGRLVTPGTPLTLTCTVSGFSLNSYSMSWVRQAPGKGLEWIGVIGLGGSAYYASWAKGRFTISGASTTVDLKITSPTTEDTATYFCARATYSDDNIWGPGTLVTVSS
VL: DVVMTQTPSSTSAAVGGTVTIKCQASQSISSWLSWYQQKPGQRPKPLIVRASTLASGVPSRFKGNRSGTEYTLTISGVQREDAAAYYCLGGDGNVSNFGGGTKVVVVR
notes: Rabbit/human chimeric IgG (human IgG1, kappa); HEK293
EC50, inhibition of IL-23 induced IL-17 secretion by mouse spleen cells [1]: 0.219 ng/mL | binding result [2]: binds

B5: 4F3 chimeric mAb (antibody, V domains shown)
VH: QSVEESGGRLVTPGTPLTLTCAVSGFSLSGYTMIWVRQAPGEGLEWIGIISSSGNTYYASWVKGRFTISKTSTTVDLKMISPTTEDTATYFCARGSGAYISDYFNVWGPGTLVTVSS
VL: FELTQTPSSVEAAVEGTVTIKCQASQSIDSWLSWYQQKPGQPPKLLIYSASKLAPGVPSRFSGSGSGTQFTLTIGDLECADAATYYCQSYYDVNAGYGFGGGTEVVVVR
notes: Rabbit/human chimeric IgG (human IgG1, kappa); HEK293; also called mAb 4F3
EC50: concentration necessary to inhibit bioactivity of 50 pg/ml of IL-6 [1]: 2.34 ng/mL | binding result [5]: binds | IC50 (read off the curve) (interferon-gamma from NK92 cells, OD450) [6]: ~2 ng/mL

B6: 5C5 chimeric mAb (antibody, V domains shown)
VH: QSVEESGGRLVTPGTPLTLTCTVSGFSLSSYTMIWVRQAPGEGLEWIGIISAGGSAYYASWVNGRFTISKTSTTVDLKMTSPTTGDTATYFCARGSGTYTSDYFNIWGPGTLVTVSS
VL: B5 VL with E15G, S33A, P55T, G75S, V93A, E104K
notes: Rabbit/human chimeric IgG (human IgG1, kappa); HEK293; also called mAb 5C5
EC50: concentration necessary to inhibit bioactivity of 50 pg/ml of IL-6 [1]: 1.91 ng/mL | binding result [5]: binds | IC50 (read off the curve) (interferon-gamma from NK92 cells, OD450) [6]: ~0.9 ng/mL

B7: 18D4 chimeric mAb (antibody, V domains shown)
VH: QSVEESGGRLVTPGTPLTLTCTVSGFSLSSYAMTWVRQAPGKGLEWIGTSYVYSGDTWYASWVKGRFTISKTSTTVDLKITSPTTEDTATYFCARVGDYDDYGAHDVFDSWGPGTLVTVSS
VL: YDMTQTPASVEVAVGGTVTIKCQASESISSWLSWYQQKPGQRPKLLLYRASTLASGVSSRFSGSGYGTEFTLTISGVQCEDAATYYCQQGYTGGNVDNAFGGGTKVVVVR
notes: Rabbit/human chimeric IgG (human IgG1, kappa); HEK293; also called 18D4 clone
EC50, inhibition of IL-6 induced B9 cell proliferation [7]: 0.054 ng/mL | IC50 (read off the curve) (B9 proliferation, OD570-600) [8]: ~4 ng/mL | Kd [9]: 0.128 nM | koff [9]: 8.49e-05 s⁻¹ | kon [9]: 666000 M⁻¹ s⁻¹

Other lines, results leading:

EC50, inhibition of IL-23 induced IL-17 secretion by mouse spleen cells [1]: 0.988 ng/mL | IC50 (read off the curve) (IL-17 from mouse splenocytes, OD450) [3]: ~0.6 ng/mL | binding result [4]: binds
B2: 49B7 chimeric mAb (antibody, V domains shown)
VH: QSLEESGGRLVTPGGSLTLTCTVSGIDLSDYDMSWVRQAPGKGLEWIGIVYDIGTIYYAPWAEGRFTISKTSTTVDLKMSSLTTEDTATYFCAREAPGYSDGDIWGPGTLVTVSS
VL: ALVMTQTPSSVSAAVGGTVTINCQASETVDNNKRLSWYQQKPGQPPKLLIYGAATLASGVPSRFKGSGSGAHFTLTISNVQREDAATYVCGGYKDSTDVGFGGGTELEILR
notes: as for B1

binding result [2]: binds
B3: 35H4 chimeric mAb (antibody, V domains shown)
VH: B2 VH with V75M, R94T
VL: LVMTQTPSSVSAAVGGTVTINCQASETVGNNNRLSWYQQKPGQPPKLLIYGAATLASGVPSRFKGSGSGAHFTLTISNVQREDVATYVCGGYKDSTDVGFGGGTELEILR
notes: Rabbit/human chimeric IgG (human IgG1, kappa); HEK293; also called 35H4 clone

EC50, inhibition of IL-23 induced IL-17 secretion by mouse spleen cells [1]: 0.05 ng/mL | binding result [2]: binds
B4: 34E11 chimeric mAb (antibody, V domains shown)
VH: QEQLKESGGGLVTPGGSLTLTCTVSGFSLSTYDINWVRQAPGKGLEWIGYIYRGSPYYADWAKGRFTISSTSTTVGLKITSPTTVDTATYFCTRNLYSVNVLWGPGTLVTVS
VL: LVMTQTPSSTSAAVGDTVTIKCQASQSISSRLAWYQQKPGQPPKLLIYSASTLASGVPSRFKGSGSGTDYTLTISGVQREDAATYYCLGSYSNTIRTFGAGTKVEIKR
notes: Rabbit/human chimeric IgG (human IgG1, kappa); HEK293; also called 34E11 clone
